{"source": "patent US12209122", "biological_target": "the two scFvs (16-22-H05-sc02 and 16-22-H05-sc04)", "test": "competition ELISA, coated scFv, biotinylated TNFα, unlabeled TNFβ against unlabeled TNFα", "data": [{"binder": "recombinant human TNFβ (Peprotech, Cat. No. 300-01B) (ligand, UniProt P01374 35-205, looked up) LPGVGLTPSAAQTARQHPKMHLAHSTLKPAAHLIGDPSKQNSLLWRANTDRAFLQDGFSLSNNSLLVPTSGIYFVYSQVVFSGKAYSPKATSSPLYLAHEVQLFSSQYPFHVPLLSSQKMVYPGLQEPWLHSMYHGAAFQLTQGDQLSTHTDGIPHLVLSPSTVFFGAFAL", "values": [{"measurement": "selectivity for binding to TNFα over TNFβ (fold)", "result": "> 20000", "unit": "fold"}]}]}
